According to patent US20160158380A1 (INSERM INSTITUT NATIONAL DE LA SANTE ET DE LA RECHERCHE …, published 2016):

Tests used:
murine CLDN1 = molecular target: T1, murine CLDN1 (murine, UniProt O88551 1-211); assay: flow cytometry on SW480 cells transiently transfected with murine CLDN1
T1 construct: whole, on cells; also called mCLDN1
T1 sequence (looked up): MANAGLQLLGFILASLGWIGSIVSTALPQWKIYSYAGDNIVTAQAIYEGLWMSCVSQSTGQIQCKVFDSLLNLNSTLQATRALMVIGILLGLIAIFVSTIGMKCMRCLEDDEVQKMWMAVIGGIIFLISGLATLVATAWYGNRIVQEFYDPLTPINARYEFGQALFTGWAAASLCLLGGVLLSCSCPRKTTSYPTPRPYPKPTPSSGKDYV
Procedure: (§1) Hybridomas or mAbs binding was determined with a FACScan fluorescence-activated cell sorter (Quanta apparatus, Beckman Coulter). Cells were seeded in 25 cm² flasks (2×10⁵ cells/flask). After a 48-hour rest, one million cells were pelleted, Washed with PBS-1% BSA and incubated with hybridomas or mAbs, on ice for 1 h. After washing, an appropriate anti-mouse FITC conjugated monoclonal antibody ((1:60 dilution; (Invitrogen) was added (on ice for 45 mn) to detect the primary antibodies. Direct incubation of cells with the secondary antibody was used for background measurements (negative control).
(§2) After transitory transfection on SW480 cells of human cDNA clone of CLDN8 (sc320974, Origene technologies, USA) and murine cDNA clone of CLDN1 (IRAVp968A105D, LifeScience), we analysed by FACs cross-reactivity of 6F6C3 mAb.

CLDN7 = molecular target: T2, CLDN7 (human, UniProt O95471 1-211); assay: flow cytometry on parental SW480 cells, which express CLDN7
T2 construct: whole, on cells; Species is inferred from the human SW480 cell line
T2 sequence (looked up): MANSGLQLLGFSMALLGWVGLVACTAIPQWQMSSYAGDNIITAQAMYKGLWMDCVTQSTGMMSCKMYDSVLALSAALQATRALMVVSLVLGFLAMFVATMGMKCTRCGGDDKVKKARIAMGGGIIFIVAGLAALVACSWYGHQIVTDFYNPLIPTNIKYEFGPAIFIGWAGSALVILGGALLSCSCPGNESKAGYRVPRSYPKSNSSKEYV

human CLDN8 = molecular target: T3, human CLDN8 (human, UniProt P56748 1-225); assay: flow cytometry on SW480 cells transiently transfected with human CLDN8
T3 construct: whole, on cells
T3 sequence (looked up): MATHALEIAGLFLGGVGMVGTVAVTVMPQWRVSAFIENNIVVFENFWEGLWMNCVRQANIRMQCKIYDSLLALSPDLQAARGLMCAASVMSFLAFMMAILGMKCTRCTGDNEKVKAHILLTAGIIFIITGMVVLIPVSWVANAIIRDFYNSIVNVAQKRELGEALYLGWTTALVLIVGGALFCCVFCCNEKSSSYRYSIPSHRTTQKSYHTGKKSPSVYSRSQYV
Procedure: as §1, §2

Measured: binding result

B1: 6F6C3 mAb (antibody, V domains shown)
VH: QIQLVQSGPELKKPGETVRISCKASGYTFTTSGMQWLQKMPGKGLKWIGWINTHFGEPKYAEDFKGRFAFSLETSASTAYLQISNLKNEDTATYFCAGAGYYGSRYFDVWGAGTTVTVSS
VL: DIVMTQSQKFMSTSVGDRVSITCKASQNVGTAVAWYQQKPGQSPKLLIYSASNRYTGVPDRFTGSGSGTDFTLTISNMQSEDLADYFCQQYSSYPLTFGGGTKLEIK
notes: Mouse hybridoma monoclonal antibody, IgG3 heavy chain and kappa light chain; also called mAb6F6C3; MAb 6F6C3
no binding (tested: 10 µg/mL): all assays above
